Source: patent US20260151519A1 (AKTIS ONCOLOGY, published 2026)
Bridges are numbered along the chain shown (N, C = ends). Primed or numbered codes have the meaning given here. Where no end group is shown, it is not given here. The star is where a group is joined. Biotin = O=C1N[C@H]2[C@H](CS[C@H]2CCCCC(=O)*)N1; PEG4″ = 4(ethylene glycol)

molecular target: T1, Human Nectin-4 (human, UniProt Q96NY8 32-349, limits assumed); assay: Table 2B (DELFIA or SPR)
T1 construct: Protein immobilised on the SPR chip; also called target protein
T1 sequence: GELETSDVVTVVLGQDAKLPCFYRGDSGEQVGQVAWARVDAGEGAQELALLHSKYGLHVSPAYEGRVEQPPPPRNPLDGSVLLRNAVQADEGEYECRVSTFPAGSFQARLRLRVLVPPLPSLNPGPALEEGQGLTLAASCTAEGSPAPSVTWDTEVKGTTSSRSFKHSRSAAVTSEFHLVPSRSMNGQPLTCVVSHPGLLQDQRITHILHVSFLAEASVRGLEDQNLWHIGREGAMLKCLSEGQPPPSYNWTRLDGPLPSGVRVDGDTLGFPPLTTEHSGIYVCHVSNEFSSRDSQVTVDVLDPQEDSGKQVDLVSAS

| Binder | Kd [nM] |
| --- | --- |
| {Biotin-PEG4″}-CEYDEEFFTALARLRGADICDYIQAKFQYLPGLCIEEILDNLGCS (designed binder, disulfide 1-34, 20-44) [C147] | 0.69 |
| {Biotin-PEG4″}-CEYDEEFFTALARLRGGDICEYIQAKFQYLPGLCIQEILDNLGCS (designed binder, disulfide 1-34, 20-44) [C148] | 0.82 |
| {Biotin-PEG4″}-CEYDEEFFTALARLRGGDICEYIQAKFQYLEGLCIEEILDNLGCS-OH (designed binder, disulfide 1-34, 20-44) [C150] | 1 |
| {Biotin-PEG4″}-CEYDEAFFTALARLRGGDICQYIQAKFQYLPGLCIEEILDNLGCS-OH (designed binder, disulfide 1-34, 20-44) [C151] | 0.68 |
| {Biotin-PEG4″}-CEYDEQFFTALARLRGGDICYYILAKFQYLPQLCIEEILDNLGCS (designed binder, disulfide 1-34, 20-44) [C152] | 0.85 |
| {Biotin-PEG4″}-CEYDEEFFTALARLRGGDICQYIQAKFQYLPALCIEEILDNLGCS (designed binder, disulfide 1-34, 20-44) [C153] | 0.56 |
| {Biotin-PEG4″}-CEYDEEFFTALARLRGGDICYYIQAKFAYLPALCIEEILDNLGCS (designed binder, disulfide 1-34, 20-44) [C154] | 0.94 |
| {Biotin-PEG4″}-CEYDEEFFTALARLRGGDICQYIQAKFAYVPGLCIEEILDNLGCS-OH (designed binder, disulfide 1-34, 20-44) [C155] | 1.1 |
| {Biotin-PEG4″}-CEYDEEFFTALARLRGSDICLYIQAKFQYLPGLCIEEILDNLGCS-OH (designed binder, disulfide 1-34, 20-44) [C156] | 1.1 |
| {Biotin-PEG4″}-CEYDEEFFTALARLRGGDICDYIQAKFQYLPGLCIAEILDNLGCS-OH (designed binder, disulfide 1-34, 20-44) [C157] | 1.1 |
| {Biotin-PEG4″}-CEYDGEFFTALARLRGGDICQYIQAKFQYLPGLCIEEILDNLGCS-OH (designed binder, disulfide 1-34, 20-44) [C158] | 1.1 |
| {Biotin-PEG4″}-CEYDEEFFTALASLRGGDICYYIQAKFQYLPGLCIEEILDNLGCS-OH (designed binder, disulfide 1-34, 20-44) [C161] | 7.5 |
| {Biotin-PEG4″}-CEYDEEFFTALAQLRGGDICYYIQAKFQYLPGLCIEEILDNLGCS-OH (designed binder, disulfide 1-34, 20-44) [C162] | 8.8 |
| {Biotin-PEG4″}-CEYDEEFFTALARLRGGDICYYIQAYFQYLPGLCIEEILDNLGCS-OH (designed binder, disulfide 1-34, 20-44) [C165] | 4.1 |
| {Biotin-PEG4″}-CEYDEEFFTALARLRGGDICYYIQAKFQYLPKLCIEEILDNLGCS-OH (designed binder, disulfide 1-34, 20-44) [C166] | 0.75 |
| {Biotin-PEG4″}-CEYDEEFFTALARLRGGDICEYIQAKFQYLPKLCIEEILDNLGCS-OH (designed binder, disulfide 1-34, 20-44) [C167] | 1.2 |
| {Biotin-PEG4″}-CEYDEEFFTALARLRGGDICSYIQAKFQYLPKLCIEEILDNLGCS (designed binder, disulfide 1-34, 20-44) [C168] | 0.9 |
| {Biotin-PEG4″}-CEYDEEFFTALARLRGGDICDYIQAKFQYLPKLCIEEILDNLGCS (designed binder, disulfide 1-34, 20-44) [C169] | 0.74 |
| {Biotin-PEG4″}-CEYDEEFFTALARLRGGDICYYIQAYFQYLPGLCIEEILDNLGCS-OH (designed binder, disulfide 1-34, 20-44) [C174] | 4.1 |
| {Biotin-PEG4″}-CEYDEEFFTALKRLRGGDICYYIQASFQYLPGECIEEILDNLGCS-OH (designed binder, disulfide 1-34, 20-44) [C177] | 2 |

| Binder | Kd [nM] |
| --- | --- |
| {Biotin-PEG4″}-CEYDEEFFTALKRLRGGDICSYIQASFQYLPGLCIEEILDNLGCS-OH (designed binder, disulfide 1-34, 20-44) [C179] | 1.8 |
| {Biotin-PEG4″}-CEYDEEFFTALKRLRGDDICYYIQASFQYLPGLCIEEILDNLGCS-OH (designed binder, disulfide 1-34, 20-44) [C180] | 2.7 |
| {Biotin-PEG4″}-CEYDEEFFTALKRLRGDDICEYIQASFQYLPGLCIEEILDNLGCS-OH (designed binder, disulfide 1-34, 20-44) [C181] | 3 |
| {Biotin-PEG4″}-CEYDEEFFTALKRLRGDDICSYIQASFQYLPGLCIEEILDNLGCS-OH (designed binder, disulfide 1-34, 20-44) [C182] | 3 |
| {Biotin-PEG4″}-CEYDEQFFTALKRLRGADICEYIQASFQYLPGLCIEEILDNLGCS-OH (designed binder, disulfide 1-34, 20-44) [C183] | 1.2 |
| {Biotin-PEG4″}-CEYDEQFFTALKRLRGGDICSYIQASFQYLPGLCIEEILDNLGCS (designed binder, disulfide 1-34, 20-44) [C184] | 2.5 |
| {Biotin-PEG4″}-CEYDEQFFTALKRLRGDDICSYIQASFQYLPGLCIEEILDNLGCS (designed binder, disulfide 1-34, 20-44) [C186] | 1.7 |
| {Biotin-PEG4″}-CDYDEEFFTALKRLRGGDICEYIQASFQYLPGLCIEEILDNLGCS-OH (designed binder, disulfide 1-34, 20-44) [C188] | 1.6 |
| {Biotin-PEG4″}-CDYDEEFFTALKRLRGGDICSYIQASFQYLPGLCIEEILDNLGCS-OH (designed binder, disulfide 1-34, 20-44) [C189] | 1.1 |
| {Biotin-PEG4″}-CDYDEEFFTALKRLRGDDICEYIQASFQYLPGLCIEEILDNLGCS-OH (designed binder, disulfide 1-34, 20-44) [C191] | 1.4 |
| {Biotin-PEG4″}-CDYDEEFFTALKRLRGDDICSYIQASFQYLPGLCIEEILDNLGCS-OH (designed binder, disulfide 1-34, 20-44) [C192] | 1.3 |
| {Biotin-PEG4″}-CDYDEQFFTALKRLRGDDICEYIQASFQYLPGLCIEEILDNLGCS-OH (designed binder, disulfide 1-34, 20-44) [C193] | 1 |
| {Biotin-PEG4″}-CEYDEQFFTALKRLRGADICDYIQASFQYLPGLCIEEILDNLGCS-OH (designed binder, disulfide 1-34, 20-44) [C194] | 1.1 |
| {Biotin-PEG4″}-CEYDEEFFTALKRLRGADICDYIQASFQYLPGLCIEEILDNLGCS-OH (designed binder, disulfide 1-34, 20-44) [C195] | 2.3 |
| {Biotin-PEG4″}-CEYDEEFFTALKRLRGGDICEYIQAAFQYLPGLCIEEILDNLGCS-OH (designed binder, disulfide 1-34, 20-44) [C198] | 2.3 |
| {Biotin-PEG4″}-CEYDEEFFTALKRLRGGDICDYIQASFQYLPGLCIEEILDNLGCS-OH (designed binder, disulfide 1-34, 20-44) [C200] | 2 |
| {Biotin-PEG4″}-CEYDEEFFTALKRLRGGDICEYIQASFQYLPGECIEEILDNLGCS (designed binder, disulfide 1-34, 20-44) [C202] | 2.2 |
| {Biotin-PEG4″}-CEYDEEFFTALKRLRGGDICDYIQASFQYLPGECIEEILDNLGCS-OH (designed binder, disulfide 1-34, 20-44) [C203] | 2.3 |
| {Biotin-PEG4″}-CEYDEEFFTALKRLRGGDICEYIQASFQYLPGECIEEILQNLGCS-OH (designed binder, disulfide 1-34, 20-44) [C204] | 1.98 |
| {Biotin-PEG4″}-CEYDEEFFTALKRLRGGDICDYIQASFQYLPGECIEEILQNLGCS-OH (designed binder, disulfide 1-34, 20-44) [C205] | 2.1 |
